Data: patent publication US20140087995A1 (published 2014)
Numbered stars: 1 amine (or outer) side, 2 acyl side, 3 side chain; on linkers, the order of the positions; unused ones are H or OH. Bridge positions count the residues as written; N and C are the ends. Side chains are listed from the residue outwards. Ends that are not written are not given here. * marks the point of attachment. C20 diacid = O=C(O)CCCCCCCCCCCCCCCCCCC(=O)*; γGlu = O=C(O)[C@H](CCC(=O)[*:2])N[*:1]

T1: human amylin receptor (amylin 3(a) receptor: human calcitonin receptor with RAMP-3) (human, UniProt P30988 25-474; O60896 24-148)
T1 construct: whole, on cells; also called hAmylin-R; hAmylinR
T1 sequence (looked up) 1: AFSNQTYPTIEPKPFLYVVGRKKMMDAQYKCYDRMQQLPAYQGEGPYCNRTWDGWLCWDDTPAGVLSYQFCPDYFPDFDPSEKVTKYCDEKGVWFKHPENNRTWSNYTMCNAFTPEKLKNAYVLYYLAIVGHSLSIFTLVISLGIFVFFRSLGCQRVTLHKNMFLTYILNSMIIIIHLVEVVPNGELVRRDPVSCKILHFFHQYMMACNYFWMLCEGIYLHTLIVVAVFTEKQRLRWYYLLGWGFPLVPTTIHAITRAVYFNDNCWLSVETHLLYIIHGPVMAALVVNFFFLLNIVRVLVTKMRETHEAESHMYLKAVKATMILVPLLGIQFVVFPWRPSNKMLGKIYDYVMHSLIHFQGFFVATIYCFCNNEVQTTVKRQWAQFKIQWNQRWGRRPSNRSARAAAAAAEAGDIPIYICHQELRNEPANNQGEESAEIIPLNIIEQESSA
T1 sequence (looked up) 2: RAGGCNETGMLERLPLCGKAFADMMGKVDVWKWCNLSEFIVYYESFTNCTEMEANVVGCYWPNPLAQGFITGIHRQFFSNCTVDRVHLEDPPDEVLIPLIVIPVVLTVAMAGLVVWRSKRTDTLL

B1: N^ε1-[(4S)-4-carboxy-4-[[(4S)-4-carboxy-4-(19-carboxynonadecanoylamino)butanoyl]amino]butanoyl]-[Glu14,Arg17,Pro21,Pro27,Pro37]-h-amylin (peptide)
peptide: K([γGlu-γGlu-C20 diacid])CNTATCATQRLAEFLRHSSPNFGAIPSSTNVGSNTP-NH2
modifications: disulfide 2-7; N-terminus assumed
SMILES: CC[C@H](C)[C@H](NC(=O)[C@H](C)NC(=O)CNC(=O)[C@H](Cc1ccccc1)NC(=O)[C@H](CC(N)=O)NC(=O)[C@@H]1CCCN1C(=O)[C@H](CO)NC(=O)[C@H](CO)NC(=O)[C@H](Cc1c[nH]cn1)NC(=O)[C@H](CCCNC(=N)N)NC(=O)[C@H](CC(C)C)NC(=O)[C@H](Cc1ccccc1)NC(=O)[C@H](CCC(=O)O)NC(=O)[C@H](C)NC(=O)[C@H](CC(C)C)NC(=O)[C@H](CCCNC(=N)N)NC(=O)[C@H](CCC(N)=O)NC(=O)[C@@H](NC(=O)[C@H](C)NC(=O)[C@@H]1CSSC[C@H](NC(=O)[C@@H](N)CCCCNC(=O)CC[C@H](NC(=O)CC[C@H](NC(=O)CCCCCCCCCCCCCCCCCCC(=O)O)C(=O)O)C(=O)O)C(=O)N[C@@H](CC(N)=O)C(=O)N[C@@H]([C@@H](C)O)C(=O)N[C@@H](C)C(=O)N[C@@H]([C@@H](C)O)C(=O)N1)[C@@H](C)O)C(=O)N1CCC[C@H]1C(=O)N[C@@H](CO)C(=O)N[C@@H](CO)C(=O)N[C@H](C(=O)N[C@@H](CC(N)=O)C(=O)N[C@H](C(=O)NCC(=O)N[C@@H](CO)C(=O)N[C@@H](CC(N)=O)C(=O)N[C@H](C(=O)N1CCC[C@H]1C(N)=O)[C@@H](C)O)C(C)C)[C@@H](C)O
notes: also called 13; compound 13
B2: N^ε1-[(4S)-4-carboxy-4-[[(4S)-4-carboxy-4-(19-carboxynonadecanoylamino)butanoyl]amino]butanoyl]-[His14,Arg17,Pro21,Pro27]-h-amylin (peptide)
peptide: K([γGlu-γGlu-C20 diacid])CNTATCATQRLAHFLRHSSPNFGAIPSSTNVGSNTY-NH2
modifications: disulfide 2-7; N-terminus assumed
SMILES: CC[C@H](C)[C@H](NC(=O)[C@H](C)NC(=O)CNC(=O)[C@H](Cc1ccccc1)NC(=O)[C@H](CC(N)=O)NC(=O)[C@@H]1CCCN1C(=O)[C@H](CO)NC(=O)[C@H](CO)NC(=O)[C@H](Cc1c[nH]cn1)NC(=O)[C@H](CCCNC(=N)N)NC(=O)[C@H](CC(C)C)NC(=O)[C@H](Cc1ccccc1)NC(=O)[C@H](Cc1c[nH]cn1)NC(=O)[C@H](C)NC(=O)[C@H](CC(C)C)NC(=O)[C@H](CCCNC(=N)N)NC(=O)[C@H](CCC(N)=O)NC(=O)[C@@H](NC(=O)[C@H](C)NC(=O)[C@@H]1CSSC[C@H](NC(=O)[C@@H](N)CCCCNC(=O)CC[C@H](NC(=O)CC[C@H](NC(=O)CCCCCCCCCCCCCCCCCCC(=O)O)C(=O)O)C(=O)O)C(=O)N[C@@H](CC(N)=O)C(=O)N[C@@H]([C@@H](C)O)C(=O)N[C@@H](C)C(=O)N[C@@H]([C@@H](C)O)C(=O)N1)[C@@H](C)O)C(=O)N1CCC[C@H]1C(=O)N[C@@H](CO)C(=O)N[C@@H](CO)C(=O)N[C@H](C(=O)N[C@@H](CC(N)=O)C(=O)N[C@H](C(=O)NCC(=O)N[C@@H](CO)C(=O)N[C@@H](CC(N)=O)C(=O)N[C@H](C(=O)N[C@@H](Cc1ccc(O)cc1)C(N)=O)[C@@H](C)O)C(C)C)[C@@H](C)O
notes: also called 92; compound 92

Biological target: T1, human amylin receptor (amylin 3(a) …)
Test: SPA displacement of 125I-rat amylin, hAmylin 3(a) receptor membranes
In short: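 Cell membranes were prepared by homogenisation in Na-HEPES/EDTA buffer, pH 7.4, and stored at −80° C. They were then coupled to SPA beads at 35 ng/μL final and exposed to compounds in assay buffer containing CaCl2, MgCl₂, OA and Tween20. After 120 min at 25° C, plates were counted and IC₅₀ derived.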

Row | Binder | IC50
1 | B1 | 0.264 nM
2 | B2 | 0.179 nM
